Measured values: paper PMC5018250, “Structure of the Bacterial Sex F Pilus Reveals an Assembly of a Stoichiometric Protein-Phospholipid Complex” (Cell, 2016)

Target: the molecule itself
Assay: cryo-EM structure; purified F pili in Tris-HCl, 200 mM NaCl, pH 8.0, vitrified; helical reconstruction (IHRSR), two classes with axial rise 12.5 A and 13.2 A, 5.0 A maps

B1: F TraA pilin (natural protein, E. coli (F plasmid; pOX38 in DH5alpha), UniProt P04737 52-121, looked up)
chain: AGSSGQDLMASGNTTVKATFGKDSSVVKWVVLAEVLVGAVMYMMTKNVKFLAGFAIISVFIAVGMAVVGL
notes: TraA pilin of the F pilus encoded by the F plasmid derivative pOX38; N terminus 4 aa longer than that of pED208 TraA and disordered in the maps; Stands in the pilus as a helical polymer; two filament populations (axial rise 12.5 A and 13.2 A); also called F pilin; F pilus subunit; source: produced in vivo from the pOX38-Cm plasmid in E. coli DH5alpha
B1: binds.
